Patent US20210238283A1 (Y BIOLOGICS, published 2021)

Tests used:
[1] = target: T1, recombinant human LAG-3 extracellular domain fused with mouse Fc (hLAG-3-mFc) (human, UniProt P18627 29-450); test: Octet biolayer interferometry, 1:1 global fit
T1 construct: range 29-450; Made in HEK293F cells; also called human LAG-3 antigen; wild-type (WT) LAG-3; not shown: mouse Fc (mFc) at the carboxy terminal
T1 sequence (looked up): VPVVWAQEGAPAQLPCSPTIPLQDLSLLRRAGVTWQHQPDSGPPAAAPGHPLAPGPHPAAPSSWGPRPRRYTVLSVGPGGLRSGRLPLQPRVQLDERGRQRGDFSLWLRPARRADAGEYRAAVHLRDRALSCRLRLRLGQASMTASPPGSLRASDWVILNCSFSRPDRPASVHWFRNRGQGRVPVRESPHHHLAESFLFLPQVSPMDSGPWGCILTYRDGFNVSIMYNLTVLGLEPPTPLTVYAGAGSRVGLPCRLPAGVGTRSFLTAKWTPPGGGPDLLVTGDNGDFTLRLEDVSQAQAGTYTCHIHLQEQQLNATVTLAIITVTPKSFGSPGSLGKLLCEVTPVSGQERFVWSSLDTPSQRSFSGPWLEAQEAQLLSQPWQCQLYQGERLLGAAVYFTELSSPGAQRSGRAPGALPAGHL
Procedure: (§1) After stabilization for 10 minutes in a buffer (#18-1042, Fortebio Inc.), immobilized antigen or antibody was washed out for 5 minutes with the buffer. The antibody or antigen desired for binding was prepared at different concentrations (0.94-60 nM) in a 96-well plate (#655209, Greiner Bio-One, USA) and subjected to the association reaction for 10 minutes followed by dissociation reaction for 10 minutes or 30 minutes.

[2] = target: T2, recombinant mouse LAG-3 fused with mouse Fc (mLAG-Fc) (mouse, UniProt Q61790 24-442, limits assumed); test: Octet biolayer interferometry, 1:1 global fit
T2 construct: also called mouse LAG-3 antigen; not shown: mouse Fc (mFc) at the carboxy terminal
T2 sequence (looked up): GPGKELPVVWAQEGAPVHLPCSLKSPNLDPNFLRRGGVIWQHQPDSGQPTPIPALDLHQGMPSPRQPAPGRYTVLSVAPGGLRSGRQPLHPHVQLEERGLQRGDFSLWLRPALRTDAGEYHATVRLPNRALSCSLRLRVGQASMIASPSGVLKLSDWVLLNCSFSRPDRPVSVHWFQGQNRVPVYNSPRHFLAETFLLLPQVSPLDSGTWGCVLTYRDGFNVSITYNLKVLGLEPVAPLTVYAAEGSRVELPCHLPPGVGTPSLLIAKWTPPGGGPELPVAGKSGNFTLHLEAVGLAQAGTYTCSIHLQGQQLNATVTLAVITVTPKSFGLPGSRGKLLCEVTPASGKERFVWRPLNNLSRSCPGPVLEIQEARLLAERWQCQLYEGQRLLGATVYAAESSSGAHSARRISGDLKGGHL
Procedure: as §1

[3] = target: T3, recombinant monkey LAG-3 fused with mouse Fc (MrhLAG-3-mFc) (monkey); test: Octet biolayer interferometry, 1:1 global fit
T3 construct: also called monkey LAG-3 antigen
Procedure: as §1

[4] = target: T4, mouse LAG-3 overexpressed on HEK293E cells (mouse, UniProt Q61790 24-521); test: flow cytometry, HEK293E cells overexpressing mouse LAG-3
T4 construct: whole, on cells; also called HEK293E-mLAG3; mLAG3 (Mouse)
T4 sequence (looked up): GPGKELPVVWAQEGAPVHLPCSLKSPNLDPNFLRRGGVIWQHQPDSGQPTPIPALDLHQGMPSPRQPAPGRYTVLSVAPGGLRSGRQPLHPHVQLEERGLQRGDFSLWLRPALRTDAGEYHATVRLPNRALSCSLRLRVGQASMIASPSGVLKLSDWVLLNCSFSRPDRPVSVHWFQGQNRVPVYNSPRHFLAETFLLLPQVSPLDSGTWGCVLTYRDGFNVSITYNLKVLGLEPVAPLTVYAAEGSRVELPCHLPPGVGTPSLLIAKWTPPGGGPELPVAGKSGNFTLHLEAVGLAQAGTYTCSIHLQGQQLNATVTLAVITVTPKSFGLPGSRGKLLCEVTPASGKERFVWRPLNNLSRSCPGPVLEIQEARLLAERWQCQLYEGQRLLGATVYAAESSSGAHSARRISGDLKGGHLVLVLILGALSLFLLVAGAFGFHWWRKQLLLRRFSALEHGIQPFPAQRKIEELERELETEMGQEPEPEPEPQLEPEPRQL
Procedure: After that, the cells were washed three times with PBS containing 2% FBS and then subjected to the reaction for 30 minutes at 4° C. with anti-human IgG antibody (#FI-3000, Vectorlabs) linked with FITC fluorescent. The cells were washed by the same washing process as above followed by suspension in 0.2 ml PBS containing 2% FBS. The cells were then analyzed by FACSCanto II flow cytometer.

B1: human anti-LAG-3 monoclonal antibody 1E09 (antibody, V domains shown)
VH: QVQLVQSGGDLVKPGGSLRLSCAASGFSFSDHYMNWIRQAPGKGLEWVAYIDTSATYIYYADSVKGRFTISRDNAKNSLYLQMNSLRAEDTAVYYCARDNWGSLDYWGQGALVTVSS
VL: DIQMTQSPSSLSPSVGDRVTITCQASQEISIYLNWYQQKPGKAPKLLIYDASNLETGVPSRFSGSGSGTDFTLTISSLQPEDFATYYCQQTYITPYTFGQGTKLDIK
notes: Tested as full IgG converted from scFv; also called LAG-3-1E09; Parent (1E09)
[1]
  koff: 7.23e-05 s⁻¹
  kon: 788000 M⁻¹ s⁻¹
[2]
  koff: 0.000256 s⁻¹
  kon: 430000 M⁻¹ s⁻¹
[3]
  koff: 6.08e-05 s⁻¹
  kon: 185000 M⁻¹ s⁻¹
[4]
  EC50: 1.5 µg/mL
